US20200010570A1 (SICHUAN KELUN BIOTECH BIOPHARMACEUTICAL, published 2020)

How the values were obtained:
[1] = target: T1, PDL-1 on the cell surface (293T cells expressing PDL-1) (human, UniProt Q9NZQ7 19-290); assay: FACS, cells expressing PDL-1, method of Example 8
[2] = target: T2, recombinant protein PDL-1ECD-mFc (human, UniProt Q9NZQ7 19-238); assay: indirect ELISA, method of Example 9; column 'Affinity by ELISA (nM)'
T2 construct: also called PDL-1-mFc; human PDL-1 (coated antigen); not shown: a TEV site before it is implied by the TEV digestion of
T2 sequence (Q9NZQ7 19-238): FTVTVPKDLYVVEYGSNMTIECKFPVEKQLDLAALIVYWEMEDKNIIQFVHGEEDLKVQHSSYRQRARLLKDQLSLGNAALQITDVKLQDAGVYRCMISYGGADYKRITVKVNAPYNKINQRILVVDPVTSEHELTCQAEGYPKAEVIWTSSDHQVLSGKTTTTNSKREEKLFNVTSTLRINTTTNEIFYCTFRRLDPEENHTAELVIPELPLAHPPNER

[3] = target: T1, PDL-1 on the cell surface (293T cells …); assay: FACS, cells expressing PDL-1, method of Example 8; column 'Cell affinity by FACS'
[4] = target: T2, recombinant protein PDL-1ECD-mFc; assay: competitive ELISA, method 'described in Example 13'; column 'Affinity by competitive ELISA (nM)'; competitor not given
[5] = target: T3, PDL-1 antigen (PDL-1-mFc digested with TEV protease) (human, UniProt Q9NZQ7 19-238); assay: Fortebio, PDL-1 on sensor, antibody then PD-1 10 µg/ml; competitor PD-1
T3 construct: the whole entry is named
T3 sequence (Q9NZQ7 19-238 limits assumed): as the sequence (Q9NZQ7 19-238) above

T1 sequence (Q9NZQ7 19-290 limits assumed): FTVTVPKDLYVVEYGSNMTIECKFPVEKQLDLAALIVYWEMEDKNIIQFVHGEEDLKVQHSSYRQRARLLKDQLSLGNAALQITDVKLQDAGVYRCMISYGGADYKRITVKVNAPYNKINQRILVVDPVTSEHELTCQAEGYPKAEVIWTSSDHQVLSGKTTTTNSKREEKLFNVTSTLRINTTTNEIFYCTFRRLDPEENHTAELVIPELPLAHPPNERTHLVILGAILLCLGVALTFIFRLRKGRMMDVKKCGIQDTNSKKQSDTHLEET

positive % [1] [%]	EC50 [2] [nM]	EC50 [3] [nM]	EC50 [4] [nM]	EC50 [5] [nM]	Binder
60.3	0.029	1.48	0.838		monoclonal antibody 5F10 (antibody, V domains shown, Murine antibody from a hybridoma) VH: EVQLQQSGAELVKPGASVKLSCTASGFDIKDTYIHWVKQRPEQGLEWIGRIDPADGNTRYDPKFQDKTTITTDTSSNTAHLQLSSLTSEDTAVYYCARGLGAWFASWGQGTLVTVSA VL: DIQMTQTTSSLSASLGDRVTISCRASQDITNSLNWYQQKPDGTVKLLIHYTSRLHSGVPSRFSGSGSGTDYSLTISNLEQEDIATYFCQQGHTLPPTFGGGTKLEI
100	0.031	2.3	0.785	0.817	monoclonal antibody 5C10 (antibody, V domains shown, Murine antibody purified from hybridoma supernatant; also called antibody of hybridoma cell strain LT005) VH: QVQLKESGPGLVAPSQNLSITCTVSGFSLSNYDISWIRQPPGKGLEWLGVIWTGGATNYNSAFMSRLSISRDNSKSQVFLKMNSLQTDDTAIYYCVRDSNYRYDEPFTYWGQGTLVTVSA VL: DILLTQSPAILSVSPGERVSLSCRASQSIGTNIHWFQQRTNGSPRLLIKYASESISGIPSRFSGSGSGTDFTLSINSVESEDIADYYCQQSNSWPYTFGGGTKLEI
80.2	0.029	2.93	0.767		monoclonal antibody 9F6 (antibody, V domains shown, Murine antibody from a hybridoma) VH: EVQLQQSGAELVKPGASVKLSCTASGFNIKDTYMYWVKQRPEQGLEWIGRIDPANGNTKYDPKFQGKATITADTSANTAYLQLSSLTSEDTAVYYCSRGPPGGIGEYIYAMDYWGQGTSVTVSS VL: QIVLTQSPAIMSASLGERVTMTCTASSSVSSSYLHWYQQKPGSSPKLWIYSTSNLASGVPARFSGSGSGTSYSLTISSMEAEDAATYYCHQYHRSPPTFGGGTKLEI
